What all share (experiment): single-molecule photobleaching step analysis
The target of one data set is LeuT (Aquifex aeolicus).
Data set [1] addresses T1, KcsA (Streptomyces lividans), P0A334.
T1 chain: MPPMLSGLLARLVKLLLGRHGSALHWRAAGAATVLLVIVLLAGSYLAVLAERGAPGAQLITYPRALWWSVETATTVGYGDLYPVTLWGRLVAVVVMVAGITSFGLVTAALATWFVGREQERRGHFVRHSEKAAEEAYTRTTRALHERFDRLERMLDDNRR
The note with it: remark: other sources report otherwise.

Data set [2] deals with the molecule itself.

With LeuT (natural protein), in the data set with LeuT (Aquifex aeolicus), the percent dimer amounted to 75% and the percent monomer was found to be 14%.

B1: KcsA, P0A334 1-160 (natural protein)
chain: MPPMLSGLLARLVKLLLGRHGSALHWRAAGAATVLLVIVLLAGSYLAVLAERGAPGAQLITYPRALWWSVETATTVGYGDLYPVTLWGRLVAVVVMVAGITSFGLVTAALATWFVGREQERRGHFVRHSEKAAEEAYTRTTRALHERFDRLERMLDDNRR
B1 yielded a stoichiometry N in data set [1] of 4.

B2: SemiSWEET (natural protein)
chain: MALIERIGKALEPLMLVMGLISPLATMPQLYKLYVSHSEHALGLSLTTWLLYSFIALLWTIYGIYHKNPTIWVGNCLGFLMYVAMVVGIIAHTGGTY
Consider B2, for which the “stoichiometry N” value in data set [2] was found to be 2.

One may read the stoichiometry N as a count of units in the complex or per binding partner.

These data come from article doi:10.1101/2023.02.19.529138 (bioRxiv, 2023).
